Data on two substances can be found in paper PMC2958111.

The experiment has as its target VEGF receptor 2 (UniProt P35968). Nature of the experiment: ELISA; VEGFR1 or VEGFR2 (200 ng/well) covalently attached with ethyl-carbodiimide to an amino-acid-coated 96-well plate; VEGF-A (200 ng/ml) applied alone or mixed with heparin, HS or porcine ocular fluid, 4°C overnight; washed with ice-cold PBS; bound VEGF-A measured with components of a human VEGF ELISA kit; values relative to controls (%).
Chain of UniProt P35968 (P35968 20-764): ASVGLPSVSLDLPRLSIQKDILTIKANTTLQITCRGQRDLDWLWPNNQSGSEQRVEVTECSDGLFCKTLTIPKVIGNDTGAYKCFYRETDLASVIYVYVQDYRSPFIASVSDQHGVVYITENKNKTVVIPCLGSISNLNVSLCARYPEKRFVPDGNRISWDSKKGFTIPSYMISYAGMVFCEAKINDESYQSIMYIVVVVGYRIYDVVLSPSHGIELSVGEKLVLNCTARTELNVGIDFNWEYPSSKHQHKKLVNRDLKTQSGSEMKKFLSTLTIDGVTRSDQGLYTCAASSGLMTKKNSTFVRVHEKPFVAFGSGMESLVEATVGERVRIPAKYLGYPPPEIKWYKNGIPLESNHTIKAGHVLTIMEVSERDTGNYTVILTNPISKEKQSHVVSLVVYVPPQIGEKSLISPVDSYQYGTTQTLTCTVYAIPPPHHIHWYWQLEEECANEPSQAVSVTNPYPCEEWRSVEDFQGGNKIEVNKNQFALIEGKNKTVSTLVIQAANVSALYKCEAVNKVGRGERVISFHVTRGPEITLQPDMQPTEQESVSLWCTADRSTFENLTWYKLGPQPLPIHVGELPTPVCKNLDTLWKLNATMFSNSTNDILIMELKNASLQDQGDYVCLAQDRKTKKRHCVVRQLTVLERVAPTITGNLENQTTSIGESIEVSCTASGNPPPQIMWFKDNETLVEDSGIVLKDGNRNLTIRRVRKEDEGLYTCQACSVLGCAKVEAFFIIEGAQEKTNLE

“vascular endothelial growth factor-A, VEGF121 isoform (ligand)” came in with a percent reduction of binding with 1,000 µg/ml soluble heparin of 9.4%.
Regarding “vascular endothelial growth factor-A, VEGF165 isoform (ligand)”, the percent inhibition of binding by 1,000 µg/ml of HS from bovine kidney is 88.1%, the percent inhibition of binding by porcine ocular fluid (63.2 µg/ml of HS) was found to be 85.7% and the percent reduction of binding with 1,000 µg/ml soluble heparin was found to be 59.8%.
